Experimental data reported in patent US12247238B2, “Mogroside biocatalysis methods and products” (The Coca-Cola Company, priority 2019, dated 2025).
Where a chain is given by its changes, count along the chain named. Numbers in names are those of the source. Entries after “also recorded” stand apart in the source; their conditions may differ.

B1: E804A: A. oryzae β-galactosidase variant, E804A (protein, UniProt Q2UCU3 19-1005, looked up, variant E804A)
Beta-galactosidase A: ASIKHRLNGFTILEHPDPAKRDLLQDIVTWDDKSLFINGERIMLFSGEVHPFRLPVPSLWLDIFHKIRALGFNCVSFYIDWALLEGKPGDYRAEGIFALEPFFDAAKEAGIYLIARPGSYINAEVSGGGFPGWLQRVNGTLRSSDEPFLKATDNYIANAAAAVAKAQITNGGPVILYQPENEYSGGCCGVKYPDADYMQYVMDQARKADIVVPFISNDASPSGHNAPGSGTGAVDIYGHDSYPLGFDCANPSVWPEGKLPDNFRTLHLEQSPSTPYSLLEFQAGAFDPWGGPGFEKCYALVNHEFSRVFYRNDLSFGVSTFNLYMTFGGTNWGNLGHPGGYTSYDYGSPITETRNVTREKYSDIKLLANFVKASPSYLTATPRNLTTGVYTDTSDLAVTPLIGDSPGSFFVVRHTDYSSQESTSYKLKLPTSAGNLTIPQLEGTLSLNGRDSKIHVVDYNVSGTNIIYSTAEVFTWKKFDGNKVLVLYGGPKEHHELAIASKSNVTIIEGSDSGIVSTRKGSSVIIGWDVSSTRRIVQVGDLRVFLLDRNSAYNYWVPELPTEGTSPGFSTSKTTASSIIVKAGYLLRGAHLDGADLHLTADFNATTPIEVIGAPTGAKNLFVNGEKASHTVDKNGIWSSEVKYAAPEIKLPGLKDLDWKYLDTLPEIKSSYDDSAWVSADLPKTKNTHRPLDTPTSLYSSDYGFHTGYLIYRGHFVANGKESEFFIRTQGGSAFGSSVWLNETYLGSWTGADYAMDGNSTYKLSQLESGKNYVITVVIDNLGLDANWTVGEETMKNPRGILSYKLSGQDASAITWKLTGNLGGEDYQDKVRGPLNEGGLYAERQGFHQPQPPSESWESGSPLEGLSKPGIGFYTAQFDLDLPKGWDVPLYFNFGNNTQAARAQLYVNGYQYGKFTGNVGPQTSFPVPEGILNYRGTNYVALSLWALESDGAKLGSFELSYTTPVLTGYGNVESPEQPKYEQRKGAY
B2: S1 RRK 14: RRK loop library variant, positions 204/205/208: NNE (protein, UniProt Q2UCU3 19-1005, looked up, variant G204N C205N V208E)
Beta-galactosidase A: B1 Beta-galactosidase A with G186N, C187N, V190E, A786E
B3: S2 RRK 2: RRK loop library variant, positions 204/205/208: GDG (protein, UniProt Q2UCU3 19-1005, looked up, variant C205D V208G)
Beta-galactosidase A: B1 Beta-galactosidase A with C187D, V190G, A786E
B4: S2 RRK 12: RRK loop library clone, positions 204/205/208: GCV (wildtype) (protein, UniProt Q2UCU3 19-1005, looked up)
Beta-galactosidase A: B1 Beta-galactosidase A with A786E
B5: S2 RRK 13: RRK loop library variant, positions 204/205/208: EES (protein, UniProt Q2UCU3 19-1005, looked up, variant G204E C205E V208S)
Beta-galactosidase A: B1 Beta-galactosidase A with G186E, C187E, V190S, A786E
B6: S2 RRK 16: RRK loop library variant, positions 204/205/208: NGR (protein, UniProt Q2UCU3 19-1005, looked up, variant G204N C205G V208R)
Beta-galactosidase A: B1 Beta-galactosidase A with G186N, C187G, V190R, A786E
B7: E142Q: A. oryzae β-galactosidase variant, E142Q (protein, UniProt Q2UCU3 19-1005, looked up, variant E142Q)
Beta-galactosidase A: B1 Beta-galactosidase A with E124Q, A786E
B8: E298A: A. oryzae β-galactosidase variant, E298A (protein, UniProt Q2UCU3 19-1005, looked up, variant E298A)
Beta-galactosidase A: B1 Beta-galactosidase A with E280A, A786E
B9: E298Q: A. oryzae β-galactosidase variant, E298Q (protein, UniProt Q2UCU3 19-1005, looked up, variant E298Q)
Beta-galactosidase A: B1 Beta-galactosidase A with E280Q, A786E
B10: D258A, E298A: A. oryzae β-galactosidase double variant D258A, E298A (protein, UniProt Q2UCU3 19-1005, looked up, variant D258A E298A)
Beta-galactosidase A: B1 Beta-galactosidase A with D240A, E280A, A786E
B11: PpAoBG: same acid lactase/β-Galactosidase enzyme as the Maxilact A4, expressed in a Pichia pistoris system (protein, UniProt Q2UCU3 19-1005, looked up)
Beta-galactosidase A: B1 Beta-galactosidase A with A786E
modifications: expressed in Pichia pastoris
notes: same acid lactase/β-Galactosidase enzyme as the Maxilact A4, expressed in a Pichia pistoris system
B12: ML: acid lactase/β-Galactosidase enzyme preparation from Aspergillus oryzae expressed in Aspergillus niger (protein, UniProt Q2UCU3 19-1005, looked up)
Beta-galactosidase A: B1 Beta-galactosidase A with A786E
modifications: enzyme preparation expressed in Aspergillus niger

Assay: Mogroside biocatalytic assay, equimolar MogV:SiaI substrate
Type: biochemical
Details: comparison of wildtype and variant
Method: (§1) Standard mogroside biocatalytic assays were performed at 37° C. in 500 μL, volume 50 mM sodium citrate buffer pH 5.6, 10 mM magnesium chloride, 10 mM substrate (typically mogroside V) and 50 μg mL−1 enzyme, and incubated for 24-96 hours. Mogroside glucosidation activity was detected by direct HPLC detection and quantification of mogroside V substrate and mogroside products from filtered reaction supernatant, and quantified by comparison with standard curves based on peak.
(§2) Mogroside compounds HPLC separation and quantification was conducted using a Synergi Hydro-RP column (250 mm×4.6 mm or 150 mm×4.6 mm) with an initial flow rate of 1 mL min−1 and a water: acetonitrile gradient as per below, similar to that described by Zhou et al. (WO 2014/150127). Compounds were detected at 210 nm using diode array detector (Agilent Technologies, USA), and calibration curves established using standard curves from 0.1 to 10 mM.

In the case of B1, the “effectiveness of Siamenoside I as a substrate in the presence of mogroside V (in words)” value is reported as “reducing the effectiveness of Siamenoside I as a substrate”.

Assay: RRK loop library variant second pass evaluation, Siamenoside I substrate
Type: biochemical
Details: Siamenoside I as substrate
Method: (§3) Single transformant colonies from 3.2.2 were inoculated into 2mL BMGY in 48 well-growth blocks and grown overnight at 30° C., 1000 rpm in a benchtop incubator before dilution of cell culture from each well into 2 mL BMM medium an equivalent well in a fresh growth block, to an OD600 nm of 1.0, and growing the induction growth blocks at 30° C., 1000 rpm in a benchtop incubator for 72 hours. The cells were then harvested (5000 g, 10 minutes) and the supernatant from each well concentrated using a 30 kDa cut-off Amicon Ultra 0.5 mL concentrator column (10 000 g, 5 minutes). Enzymatic assays were setup in fresh growth blocks to a total volume of 500 μL, comprising with 50 mM sodium citrate buffer pH 5.6, 10 mM magnesium chloride, 10 mM mogroside V and 50 μL concentrated supernatant (˜35 μg mL−1 protein). Assays were incubated without shaking at 37° C. for 72 hours. 190 μL of reaction was combined with 10 μL 10 mM internal standard (N-Boc-) and 5 μL analyzed by HPLC.
as §2, with “mM. 150 mm column retention times in minutes: mog V 9.5, sia 1 10.6, mog IVa 10.5, mog IV 11.3, mog III 12.6, mogl I 13.2. 250 mm column retention times: mog V 12.3, sia 1 13.2, mog IVa 13.5, mog IV 14.1, mog III 15.3, mog II 16.2.” for “mM.”
(§4) 48 variants were selected based on Siamenoside I yields of >70% by peak area for a second pass evaluation. The cell lines were regrown and assayed with both mogroside V and Siamenoside I as substrates, independently.

Going from B2 to B3, the “Siamenoside I Substrate Evaluation % Peak Area Siamenoside I Left After 72 hr” value falls from 84 % Peak Area to 78 % Peak Area.

Compared with B4, B5 is higher in “Siamenoside I Substrate Evaluation % Peak Area Siamenoside I Left After 72 hr” value: 35 % Peak Area for the first, 73 % Peak Area for the second.

In the case of B6, the “Siamenoside I Substrate Evaluation % Peak Area Siamenoside I Left After 72 hr” value is reported as 72 % Peak Area.

Assay: β-galactosidase ONPG activity assay
Type: biochemical
Details: oNPG substrate, over 30 minutes
Method: Standard β-galactosidase assays were performed at room temperature using o-nitrophenyl-β-D-galactopyranoside (ONPG, Sigma) as a substrate in […] with detection of o-nitrophenol release at 420 nm (UV-Spectra Max Spectrophotometer, Molecular Devices, USA). A typical reaction contained 50 mM sodium citrate buffer pH 5.6, 10 mM magnesium chloride and 100 mM potassium chloride with 2 mM ONPG and the desired amount of enzyme (usually […]). Partially purified AoBG (Sigma G5160, USA) was used as a positive control at a final concentration of 1 U mL−1. Vmax was calculated using the SpectraMax Plus software (Molecular Devices, USA) and when required kinetics were determined by varying the concentration of substrate and kinetic determinants calculated using Hyper™ (J. S. Easterby, Liverpool University).
(§5) Cells expressing enzyme variants grown in buffered minimal medium were induced for 72 hr with 1% methanol (refreshed every 24 hr), the culture supernatant harvested and assayed for standard ONPG activity over 30 minutes and mogroside V activity at pH 5.6, 37° C. for 72 hrs. The resultant activity data (Table 2) identified E200 and D258 as the likely catalytic pair for acid/base and nucleophilic attack of mogroside V by the A. oryzae β-glucosidase enzyme.

B1 and B7 are within error of each other in oNPG: 34.7 ± 0.4 mAu/min/mg for the first, 34.6 ± 0.5 mAu/min/mg for the second.

First: B8
Second: B9
The oNPG of the first is higher: 6.3 ± 0.1 mAu/min/mg for the first, 5.2 ± 0.1 mAu/min/mg for the second.

With B10 the oNPG was “INACTIVE”.

Assay: Standard mogroside biocatalytic assay, mogroside V substrate
Type: biochemical
Details: not given
Method: as §1, §2, §5

In the case of B1, the “Siamenoside I production/yield from mogroside V (in words)” value is reported as “increased ratio of Siamenoside I production; also recorded: increased Siamenoside I yield”.

Same assay, conditions: Mogroside hydrolysis, 37 C., pH 5.6

Compared with B1, B7 is lower in “Initial Rate” value: 3.06 µmol/min/mg for the first, 2.05 µmol/min/mg for the second.

Going from B8 to B9, the “Initial Rate” value falls from 2.08 µmol/min/mg to 1.82 µmol/min/mg.

Same assay, conditions: Mogroside hydrolysis, 72 h, 37 C., pH 5.6

Going from B1 to B7, the “Reaction Progress” value rises from 78% to 88%.

First: B8
Second: B9
The “Reaction Progress” value of the first is lower: 85% for the first, 89% for the second.

Going from B1 to B7, the “Sia 1” value falls from 62% to 43%.

Compared with B8, B9 is lower in “Sia 1” value: 52% for the first, 48% for the second.

Same assay, conditions: mogV assay, HPLC analysis, 37° C., after 48 hrs

With B11 the “Siamenoside I produced” value was about 32%.

Same assay, conditions: product ratio, 72 h, 37 C., pH 5.6

First: B1
Second: B7
The “Sia:MogIII” value of the first is higher: 18.6 for the first, 3.8 for the second.

First: B8
Second: B9
The “Sia:MogIII” value of the first is lower: 3.5 for the first, 3.7 for the second.

First: B1
Second: B7
The “Sia:MogIV” value of the first is higher: 3.3 for the first, 2.2 for the second.

Going from B8 to B9, the “Sia:MogIV” value rises from 2.1 to 2.2.

Assay: Reaction distributions (product ratios) of beta-galactosidase preparations
Type: biochemical
Details: 12.8 g/L MG-V (10 mM), pH 6.0, 50° C., 96 hrs
Method: as §2
Reaction distributions were evaluated for G5160 beta-galactosidase (Sigma), Maxilact A4 beta-galactosidase (DSM) and Pp-Aspergillus oryzae beta-galactosidase.
Using 12.8 g/L MG-V (10 mM) at pH 6.0, 50° C. for 96 hrs reaction time

Going from B11 to B12, the “Mog III” value rises from 12% to 17%.

Going from B11 to B12, the “Mog IV” value falls from 21% to 12%.

First: B11
Second: B12
The “Mog V” value of the first is higher: 24% for the first, 22% for the second.

Going from B11 to B12, the “Siam I” value rises from 43% to 49%.

Assay: RRK loop library variant screening, mogroside V substrate
Type: biochemical
Details: second pass evaluation, 10 mM mogroside V, pH 5.6, 37° C., 72 hours
Method: as §3
as §2, with “mM. 150 mm column retention times in minutes: mog V 9.5, sia 1 10.6, mog IVa 10.5, mog IV 11.3, mog III 12.6, mogl I 13.2. 250 mm column retention times: mog V 12.3, sia 1 13.2, mog IVa 13.5, mog IV 14.1, mog III 15.3, mog II 16.2.” for “mM.”
Therefore, variants showing improved function were chosen if they surpassed a yield value >70% by peak area during this first pass evolution.
as §4

Compared with B2, B3 is higher in “% Peak Area Siamenoside I” value: 74 % Peak Area for the first, 76 % Peak Area for the second.

Compared with B4, B5 is higher in “% Peak Area Siamenoside I” value: 66 % Peak Area for the first, 72 % Peak Area for the second.

With B6 the “% Peak Area Siamenoside I” value was 72 % Peak Area.

First: B2
Second: B3
The “Reaction Progress” value of the first is lower: 75 for the first, 87 for the second.

Compared with B4, B5 is lower in “Reaction Progress” value: 89 for the first, 88 for the second.

With B6 the “Reaction Progress” value was 87.
